Results on two molecules are retold here after patent US12398178 (dated 2025).

A value given as a limit tells only on which side of the number the result lay.

Experiment [1] deals with Compound 2. Nature of the experiment: SPR (Biacore). A general note: Surface plasmon resonance follows binding to a sensor surface in real time, without labels.
Experiment [2] deals with i,i+4 binder Linker 5. Nature of the experiment: fluorescence polarization; xStAx41 derivative. In general terms: Polarisation of emitted light reports the rotation of a fluorescent probe.
Experiment [3] concerns the target i,i+7 non-binder Linker 9. The experiment can be described thus: fluorescence polarization; xStAx41 derivative.
Experiment [4] concerns the target i,i+7 binder Linker 2. The experiment can be described thus: fluorescence polarization; xStAx41 derivative.
Experiment [5] has as its target i,i+7 binder Linker 3. Nature of the experiment: fluorescence polarization; xStAx41 derivative.
Experiment [6] has as its target i,i+4 non-binder Linker 7. The experiment can be described thus: fluorescence polarization; xStAx41 derivative.
Experiment [7] deals with i,i+7 binder Linker 9. The experiment can be described thus: fluorescence polarization; xStAx41 derivative.
The target of experiment [8] is i,i+4 binder Linker 8. Nature of the experiment: fluorescence polarization; xStAx41 derivative.
Experiment [9] addresses i,i+4 binder Linker 6. Nature of the experiment: fluorescence polarization; xStAx41 derivative.
Experiment [10] concerns the target i,i+4 non-binder Linker 9. Nature of the experiment: fluorescence polarization; xStAx41 derivative.
Experiment [11] concerns the target i,i+7 non-binder Linker 3. The experiment can be described thus: fluorescence polarization; xStAx41 derivative.
The target in experiment [12] is i,i+4 non-binder Linker 4. Nature of the experiment: fluorescence polarization; xStAx41 derivative.
Experiment [13] concerns the target i,i+7 binder Linker 8. Nature of the experiment: fluorescence polarization; xStAx41 derivative.
Experiment [14] addresses i,i+4 binder Linker 9. The experiment can be described thus: fluorescence polarization; xStAx41 derivative.
In experiment [15] the target is i,i+7 binder Linker 6. The experiment can be described thus: fluorescence polarization; xStAx41 derivative.
Experiment [16] has as its target i,i+7 non-binder Linker 2. Nature of the experiment: fluorescence polarization; xStAx41 derivative.
Experiment [17] has as its target i,i+4 binder Linker 3. The experiment can be described thus: fluorescence polarization; xStAx41 derivative.
For experiment [18], the target named is i,i+4 non-binder Linker 5. Nature of the experiment: fluorescence polarization; xStAx41 derivative.
In experiment [19] the target is i,i+7 non-binder Linker 1. The experiment can be described thus: fluorescence polarization; xStAx41 derivative.
Experiment [20] has as its target i,i+7 binder Linker 5. The experiment can be described thus: fluorescence polarization; xStAx41 derivative.
The target of experiment [21] is i,i+7 non-binder Linker 7. Nature of the experiment: fluorescence polarization; xStAx41 derivative.
The target of experiment [22] is i,i+4 non-binder Linker 3. Nature of the experiment: fluorescence polarization; xStAx41 derivative.
The target of experiment [23] is i,i+4 non-binder Linker 1. Nature of the experiment: fluorescence polarization; xStAx41 derivative.
For experiment [24], the target named is i,i+4 non-binder Linker 2. Nature of the experiment: fluorescence polarization; xStAx41 derivative.
Experiment [25] addresses i,i+7 non-binder Linker 4. Nature of the experiment: fluorescence polarization; xStAx41 derivative.
Experiment [26] concerns the target i,i+4 binder Linker 2. The experiment can be described thus: fluorescence polarization; xStAx41 derivative.
The target of experiment [27] is i,i+4 non-binder Linker 6. The experiment can be described thus: fluorescence polarization; xStAx41 derivative.
Experiment [28] concerns the target i,i+4 binder Linker 7. Nature of the experiment: fluorescence polarization; xStAx41 derivative.
In experiment [29] the target is i,i+7 binder Linker 7. Nature of the experiment: fluorescence polarization; xStAx41 derivative.
Experiment [30] addresses i,i+4 binder Linker 1. Nature of the experiment: fluorescence polarization; xStAx41 derivative.
The target in experiment [31] is i,i+4 binder Linker 4. Nature of the experiment: fluorescence polarization; xStAx41 derivative.
For experiment [32], the target named is i,i+7 non-binder Linker 6. Nature of the experiment: fluorescence polarization; xStAx41 derivative.
Experiment [33] concerns the target i,i+7 non-binder Linker 8. Nature of the experiment: fluorescence polarization; xStAx41 derivative.
Experiment [34] has as its target i,i+7 non-binder Linker 5. The experiment can be described thus: fluorescence polarization; xStAx41 derivative.
Experiment [35] has as its target i,i+4 non-binder Linker 8. The experiment can be described thus: fluorescence polarization; xStAx41 derivative.
Experiment [36] deals with i,i+7 binder Linker 4. The experiment can be described thus: fluorescence polarization; xStAx41 derivative.
In experiment [37] the target is i,i+7 binder Linker 1. The experiment can be described thus: fluorescence polarization; xStAx41 derivative.

B1: beta-Catenin (other)
chain: HAVVNLINYQDDAELATRAIPELTKLLNDEDQVVVNKAAVMVHQLSKKEASRHAIMRSPQMVSAIVRTMQNTNDVETARCTAGTLHNLSHHREGLLAIFKSGGIPALVKMLGSPVDSVLFYAITTLHNLLLHQEGAKMAVRLAGGLQKMVALLNKTNVKFLAITTDCLQILAYGNQESKLIILASGGPQALVNIMRTYTYEKLLWTTSRVLKVLSVCSSNKPAIVEAGGMQALGLHLTDPSQRLVQNCLWTLRNLSDAATKQEGMEGLLGTLVQLLGSDDINVVTCAAGILSNLTCNNYKNKMMVCQVGGIEALVRTVLRAGDREDITEPAICALRHLTSRHQEAEMAQNAVRLHYGLPVVVKLLHPPSHWPLIKATVGLIRNLALCPANHAPLREQGAIPRLVQLLVRAHQDTQRRTSMGGTQQQFVEGVRMEEIVEGCTGALHILARDVHNRIVIRGLNTIPLFVQLLYSPIENIQRVAAGVLCELAQDKEAAEAIEAEGATAPLTELLHSRNEGVATYAAAVLFRMSED
For orientation: Kd means the concentration at which binding is half-saturated. Low values mean higher affinity, high ones lower affinity. B1 gave an equilibrium dissociation constant (Kd) in experiment [1] of 450 nM.

B2: beta-catenin (other)
chain: ATQADLMELDMAMEPDRKAAVSHWQQQSYLDSGIHSGATTTAPSLSGKGNPEEEDVDTSQVLYEWEQGFSQSFTQEQVADIDGQYAMTRAQRVRAAMFPETLDEGMQIPSTQFDAAHPTNVQRLAEPSQMLKHAVVNLINYQDDAELATRAIPELTKLLNDEDQVVVNKAAVMVHQLSKKEASRHAIMRSPQMVSAIVRTMQNTNDVETARCTAGTLHNLSHHREGLLAIFKSGGIPALVKMLGSPVDSVLFYAITTLHNLLLHQEGAKMAVRLAGGLQKMVALLNKTNVKFLAITTDCLQILAYGNQESKLIILASGGPQALVNIMRTYTYEKLLWTTSRVLKVLSVCSSNKPAIVEAGGMQALGLHLTDPSQRLVQNCLWTLRNLSDAATKQEGMEGLLGTLVQLLGSDDINVVTCAAGILSNLTCNNYKNKMMVCQVGGIEALVRTVLRAGDREDITEPAICALRHLTSRHQEAEMAQNAVRLHYGLPVVVKLLHPPSHWPLIKATVGLIRNLALCPANHAPLREQGAIPRLVQLLVRAHQDTQRRTSMGGTQQQFVEGVRMEEIVEGCTGALHILARDVHNRIVIRGLNTIPLFVQLLYSPIENIQRVAAGVLCELAQDKEAAEAIEAEGATAPLTELLHSRNEGVATYAAAVLFRMSEDKPQDYKKRLSVELTSSLFRTEPMAWNETADLGLDIGAQGEPLGYRQDDPSYRSFHSGGYGQDALGMDPMMEHEMGGHHPGADYPVDGLPDLGHAQDLMDGLPPGDSNQLAWFDTDL
Consider B2, for which the equilibrium dissociation constant (Kd) in experiment [2] was 8.6 µM; in experiment [3], above 50 µM; in experiment [4] it was above 50 µM; in experiment [5] it was 25.4 µM; in experiment [6], above 50 µM; in experiment [7], 10.5 µM. Besides, the equilibrium dissociation constant (Kd) in experiment [8] was 28.7 µM; in [9], 5.6 µM; in [10], above 50 µM; in [11], above 50 µM; in experiment [12], above 50 µM; in experiment [13], 16.3 µM. Besides, the Kd in experiment [14] is 2400 nM; in experiment [15], 5.3 µM; in [16], above 50 µM; in [17], 7.1 µM; in experiment [18] it was above 50 µM; in [19], above 50 µM. The dissociation constant (Kd) is 14.6 µM in [20]; above 50 µM in [21]; above 50 µM in [22]; above 50 µM in experiment [23]; above 50 µM in [24]; above 50 µM in [25]. Also, the Kd in [26] was 3.1 µM; in experiment [27], above 50 µM; in experiment [28], 7.8 µM; in experiment [29] it was 600 nM; in experiment [30], above 50 µM; in [31], 10.1 µM. The Kd was above 50 µM in experiment [32]; above 50 µM in [33]; above 50 µM in experiment [34]; above 50 µM in experiment [35]; 8.7 µM in [36]; 2900 nM in experiment [37].
